Experimental data as given in US20260167679A1, “FUSION PROTEIN TARGETING MITOCHONDRIA, METHOD OF MAKING AND USE THEREOF” (UNIVERSITY OF ROCHESTER, priority 2020, published 2026).

How the values were obtained:
[1] = test system: isolated C. elegans mitochondria; assay: Mitochondrial O2 consumption (Clark-type electrode); format: biochemical, Caenorhabditis elegans; conditions: isolated mitochondria fueled with substrates, mtON activated
Description: O2 consumption was measured using a Clark-type O2 electrode (S1 electrode disk, DW2/2 electrode chamber and Oxy-Lab control unit, Hansatech Instruments, Norfolk UK) at 25° C. Isolated mitochondria were stirred in MRB at 1 mg/ml with 1 mg/ml fat-free BSA. Substrates and inhibitors were added by syringe port (100 μM ADP, 2 μM rotenone, 5 mM succinate). Given excess succinate as substrate for ETC respiration, we measured the amount of O2 required to convert 50 nmol of ADP to ATP and established a baseline for comparison. To test mtON activity, mitochondria were illuminated as in the ATP measurement, for 1, 5, or 10 min in the presence of ADP without succinate to allow for mtON conversion of ADP to ATP. Any remaining ADP was then converted using 02-dependent ETC respiration upon succinate addition. Slopes were calculated from plots of O2 concentration versus time to give rates of 02 consumption during ADP respiration, ADP+succinate respiration, and respiration after ADP had been entirely consumed. The intersections of these three rates were used to calculate total amount of O2 consumed during ADP+succinate respiration. Light activation of mitochondria (XCite LED, 0.02 mW/mm^2) during ADP respiration alone was carried out for differing lengths of time to test the ability of mtON to drive ADP consumption before succinate was added. […]

[2] = test system: mitochondria from HEK293T cells; assay: TMRE membrane potential of mitochondria isolated from HEK293T cells; format: biochemical; conditions: 540-600 nm light, absence of succinate
Description: Stimulation of mtON with light results in polarization of the mitochondrial inner membrane. To determine whether mtON reaches the inner mitochondrial membrane in the correct orientation and to confirm the functional responsiveness of mtON, the study measured the mitochondrial membrane potential (Dym) using TMRE. The study first isolated mitochondria from HEK293T cells expressing mtON and treated them with succinate, a complex II ETC substrate, to generate a maximal mitochondrial membrane potential as a positive control (FIG. 9, panel D).
Based on this model, light stimulation of mtON results in the polarization of the mitochondrial inner membrane. To determine whether mtON reaches the inner mitochondrial membrane in the correct orientation and to confirm the functional responsiveness of mtON, the mitochondrial inner membrane potential (Δψm) was measured using tetramethylrhodamine, ethyl ester (TMRE). TMRE is a lipophilic cationic dye that accumulates in the mitochondrial matrix proportional to the mitochondrial membrane potential. First, mitochondria were isolated from HEK293T cells expressing mtON and treated them with succinate, a substrate for the ETC (complex II), to induce a maximal mitochondrial membrane potential as a positive control.

[3] = test system: C. elegans; assay: Locomotion assay (body bends); format: in vivo, Caenorhabditis elegans; conditions: mtON activation
Description: […] One body bend was scored as a deflection of direction of motion of the posterior pharyngeal bulb. For AMPK activation, animals were placed on plates containing 1 mM AICAR 4 h before counting body bends. AICAR was dissolved in M9 buffer, added directly onto OP50 seeded plates, and allowed to dry. Illumination was continuous through measurements (MVX, 0.265 mW/mm^2).

[4] = test system: C. elegans; assay: Lifespan of mtON-expressing worms; format: in vivo, Caenorhabditis elegans
Description: Light treatment began at day 1 of adulthood for all experiments, a, Survival curves of mtON-expressing animals (extrachromosomal array). […] One-way ANOVA with Tukey's test; n=30 animals for day 4 conditions and 40 animals for day 10. […] The dotted arrow represents the molecular mechanisms to be investigated that link Δψm to aged physiology.
A) survival curve with the same conditions as FIG. 15B, but with light intensity (0.005 mW/cm2) below the threshold for mtON activation (0.01 mW/cm2). […] B) Survival curves of mtON-expressing animals versus mtON-expressing animals in a long-lived genetic background containing a constitutively active AMPK mutation.
Strain APW32 expresses mtON as an extrachromosomal array (mtON ext. chr. array), and strain APW273 expresses mtON in single copy through CRISPR/Cas9 genome integration (mtON CRISPR). See methods section for genotype details. Light intensity was varied to maintain temperature as best as possible, and proximal temperature readings directly adjacent to assay plates are reported to show local temperature variability from different incubators and from different light sources. All incubators were set to 20° C.

[5] = test system: Drosophila melanogaster; assay: Drosophila lifespan; format: in vivo; conditions: activation of mtON (ATR, white light)
Description: (C) White light increases the lifespan of mtON+ATR (red) Drosophila compared to vehicle (ethanol, blue) Drosophila.

[6] = test system: C. elegans; assay: Mitochondrial mass and unfolded protein response (staining, quantitative proteomics); format: in vivo, Caenorhabditis elegans
Description: Scale bar is 10 μm. Experiment was performed 3 times with similar results. […] Scale bar is 10 μm. Experiment was performed 3 times with similar results. C) Relative pharynx TMRE fluorescence in mtON (ex. array) animals stained at day 4 of adulthood under the indicated conditions. One-way ANOVA with Tukey's test, *p=0.0001, n=33, 34, 26, 35 animals for each bar from left to right. D) Relative pharynx MitoTracker fluorescence in animals stained at day 4 of adulthood.
Genes encoding proteins are as follows. Complex I: nuo-1, nuo-5. complex II: sdha-1, mev-1, sdhb-1. Complex III: isp-1. Complex IV: cox-5a. ATP synthase: R04F11.2, atp-5. Translocase of the outer membrane (TOM70): tomm-70. VDAC: vdac-1. Uniprot C. elegans proteome database protein codes are presented above each plot. B) Proteins that mediate the mitochondrial unfolded protein response are not affected by mtON activation, two-tailed unpaired t test, −ATR n=5, +ATR n=4 biological replicates. Genes encoding proteins are hsp-6 and hsp-60.

B1: mtON: fusion of the 187 N-terminal amino acids of mouse IMMT1 to the light-activated proton pump (Mac) from Leptosphaeria maculans (protein)
chain: MLRACQLSGVTVAAQSCLCGKFVLRPLRPCRRYSTSSSSGLTAGKIAGAGLLFVGGGIGGTILYAKWDSHFRESVEKTIPYSDKLFGMVLGSAPYTVPLPKKPVQSGPLKISSVSEVMKDSKLPVAQSQKTKGDTPASAASTGAAQIISAAGDTLSVPAPAVQHEDTIKTECPNTNEGKSTSETTEEPAGLIVDQFEEVLMKTSQLFPLPTATQSAQPTHVAPVPTVLPDTPIYETVGDSGSKTLWVVFVLMLIASAAFTALSWKIPVNRRLYHVITTIITLTAALSYFAMATGHGVALNKIVIRTQHDHVPDTYETVYRQVYYARYIDWAITTPLLLLDLGLLAGMSGAHIFMAIVADLIMVLTGLFAAFGSEGTPQKWGWYTIACIAYIFVVWHLVLNGGANARVKGEKLRSFFVAIGAYTLILWTAYPIVWGLADGARKIGVDGEIIAYAVLDVLAKGVFGAWLLVTHANLRESDVELNGFWANGLNREGAIRIGEDDGAR
modifications: Synthetic Complete mtON fusion protein sequence
oxygen needed to make ATP [1]: decreased reliance on oxygen to make ATP
mitochondrial membrane potential (TMRE) [2]: sufficient to rescue the mitochondrial membrane potential
locomotion off food ([3]; animals off food): suppressing their movement
locomotion speed (body bends per minute) ([3]; complex I mutant background (gas-1), in presence of food): rescued the decreased locomotion
lifespan ([4]; CRISPR insertion, vs light control): significantly extended lifespan compared to the light control
lifespan ([4]; extrachromosomal array, +ATR+light from day 1 of adulthood): significantly extended lifespan
light intensity threshold for mtON activation ([4]; in vivo): 0.01 mW/cm2
lifespan ([4]; light below the threshold to activate mtON (0.005 mW/cm2)): not extended
lifespan ([4]; long-lived worms with constitutively active AMPK signaling): further increased lifespan
lifespan extension in presence of FCCP ([4]; mtON activation plus mitochondrial uncoupler FCCP): sensitive
lifespan ([4]; mtON activation throughout life vs control populations): significant increase in lifespan
lifespan [5]: extends Drosophila lifespan
targets of the mitochondrial unfolded protein response ([6]; after mtON activation): did not change
mitochondrial mass ([6]; mitochondrial staining and quantitative proteomics): did not impact mitochondrial mass
